T1: AP2-LT D1 (Plasmodium falciparum, UniProt Q8IAM1 2520-2577)
T1 sequence: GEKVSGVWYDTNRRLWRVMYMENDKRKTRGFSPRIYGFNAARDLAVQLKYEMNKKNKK


Target: T1, AP2-LT D1
Test: gcPBM; about 25 ug protein; PBS, 1% milk, 0.2 mg/ml BSA, salmon testes DNA, 0.03% Triton X-100
Conditions: tags: N-terminal GST (pGEX-4T-1), kept; label: surface-attached array probe

| Binder | binding signal |
| --- | --- |
| CACACA_site8097 (dsDNA) DNA 1: CATACACCCCAACACACACACACACCCATATATAAT DNA 2: ATTATATATGGGTGTGTGTGTGTGTTGGGGTGTATG | 10.6 ln median PBM intensity, better of two orientations |
| CACACA_site3589 (dsDNA) DNA 1: AATAAAAAGAAACACACACACACACCCATATATATA DNA 2: TATATATATGGGTGTGTGTGTGTGTTTCTTTTTATT | 10.7 ln median PBM intensity, better of two orientations |
| CACACA_site2267 (dsDNA) DNA 1: AATATAAATAAAAACACACACACACCCATATATATA DNA 2: TATATATATGGGTGTGTGTGTGTTTTTATTTATATT | 10.6 ln median PBM intensity, better of two orientations |
| CACACA_site4488 (dsDNA) DNA 1: TACAAATATGGACACACACACATATATATATATATA DNA 2: TATATATATATATATGTGTGTGTGTCCATATTTGTA | 10.7 ln median PBM intensity, better of two orientations |
| CACACA_site5809 (dsDNA) DNA 1: AACACCCATGGACACACACACATATATATATATATA DNA 2: TATATATATATATATGTGTGTGTGTCCATGGGTGTT | 10.5 ln median PBM intensity, better of two orientations |
| CACACA_site4437 (dsDNA) DNA 1: CATATACACGAACACACACACATATATATATATATA DNA 2: TATATATATATATATGTGTGTGTGTTCGTGTATATG | 10.4 ln median PBM intensity, better of two orientations |
| CACACA_site8001 (dsDNA) DNA 1: TGGGAGCACAGACACACACACACACCGATATATATA DNA 2: TATATATATCGGTGTGTGTGTGTGTCTGTGCTCCCA | 10.6 ln median PBM intensity, better of two orientations |
| CACACA_site481 (dsDNA) DNA 1: ATAATCCTGAAACACACACACACACCCATAAATAAA DNA 2: TTTATTTATGGGTGTGTGTGTGTGTTTCAGGATTAT | 10.4 ln median PBM intensity, better of two orientations |
| CACACA_site6473 (dsDNA) DNA 1: AAAAAAAAAAGACACACACACACACTAATACATACA DNA 2: TGTATGTATTAGTGTGTGTGTGTGTCTTTTTTTTTT | 10.6 ln median PBM intensity, better of two orientations |
| CACACA_site9255 (dsDNA) DNA 1: AAAGAAGGTAAACACACACACACACCGACAAAAAAA DNA 2: TTTTTTTGTCGGTGTGTGTGTGTGTTTACCTTCTTT | 10.6 ln median PBM intensity, better of two orientations |
| CACACA_site499 (dsDNA) DNA 1: CACCCACCCAGACACACACACACAAAAAAAAAAAGA DNA 2: TCTTTTTTTTTTTGTGTGTGTGTGTCTGGGTGGGTG | 10.6 ln median PBM intensity, better of two orientations |
| CACACA_site8248 (dsDNA) DNA 1: TGAACTCACGAGCACACACACACATATATATATATA DNA 2: TATATATATATATGTGTGTGTGTGCTCGTGAGTTCA | 10.5 ln median PBM intensity, better of two orientations |
| CACACA_site6255 (dsDNA) DNA 1: TTTATTAATAGACACACACACACACGCAAAATAAAA DNA 2: TTTTATTTTGCGTGTGTGTGTGTGTCTATTAATAAA | 10.4 ln median PBM intensity, better of two orientations |
| CACACA_site453 (dsDNA) DNA 1: CAAAGACACAAACACACACACACATACATACATACA DNA 2: TGTATGTATGTATGTGTGTGTGTGTTTGTGTCTTTG | 10.6 ln median PBM intensity, better of two orientations |
| CACACA_site2666 (dsDNA) DNA 1: AAAAAACACAGACACACACACATATACATACATACA DNA 2: TGTATGTATGTATATGTGTGTGTGTCTGTGTTTTTT | 10.6 ln median PBM intensity, better of two orientations |
| CACACA_site1020 (dsDNA) DNA 1: AACAGACGAAGACACACACACATATATATATATATA DNA 2: TATATATATATATATGTGTGTGTGTCTTCGTCTGTT | 10.4 ln median PBM intensity, better of two orientations |

| Binder | binding signal |
| --- | --- |
| CACACA_site1992 (dsDNA) DNA 1: TGGGTAAACAAACACACACACATATATATATATATA DNA 2: TATATATATATATATGTGTGTGTGTTTGTTTACCCA | 10.5 ln median PBM intensity, better of two orientations |
| CACACA_site5247 (dsDNA) DNA 1: AGGATATGCGGACACACACACATATATATATATATA DNA 2: TATATATATATATATGTGTGTGTGTCCGCATATCCT | 10.7 ln median PBM intensity, better of two orientations |
| CACACA_site7106 (dsDNA) DNA 1: AAAAAACACGCGCACACACACACACGCGCCCACATA DNA 2: TATGTGGGCGCGTGTGTGTGTGTGCGCGTGTTTTTT | 10.5 ln median PBM intensity, better of two orientations |
| CACACA_site706 (dsDNA) DNA 1: AAAAAAAAAAAACACACACACACAAATACATACACA DNA 2: TGTGTATGTATTTGTGTGTGTGTGTTTTTTTTTTTT | 10.4 ln median PBM intensity, better of two orientations |
| CACACA_site5884 (dsDNA) DNA 1: AATACATACGGACACACACACACATATATATATATA DNA 2: TATATATATATATGTGTGTGTGTGTCCGTATGTATT | 10.7 ln median PBM intensity, better of two orientations |
| CACACA_site906 (dsDNA) DNA 1: AAAGGATACAGACACACACACACATATATATATATA DNA 2: TATATATATATATGTGTGTGTGTGTCTGTATCCTTT | 10.7 ln median PBM intensity, better of two orientations |
| CACACA_site4674 (dsDNA) DNA 1: CATATAAAAGGACACACACACACATATATATATATA DNA 2: TATATATATATATGTGTGTGTGTGTCCTTTTATATG | 10.6 ln median PBM intensity, better of two orientations |
| CACACA_site2920 (dsDNA) DNA 1: CATACATACAGACACACACACATATATATATATATA DNA 2: TATATATATATATATGTGTGTGTGTCTGTATGTATG | 10.4 ln median PBM intensity, better of two orientations |
| CACACA_site5031 (dsDNA) DNA 1: AGTATACTCGGACACACACACACATATATATATATA DNA 2: TATATATATATATGTGTGTGTGTGTCCGAGTATACT | 10.6 ln median PBM intensity, better of two orientations |
| CACACA_site5873 (dsDNA) DNA 1: AATAACCACGGACACACACACATATATATATATATA DNA 2: TATATATATATATATGTGTGTGTGTCCGTGGTTATT | 10.5 ln median PBM intensity, better of two orientations |
| CACACA_site5272 (dsDNA) DNA 1: TATACAGATGGACACACACACATATATATATATATA DNA 2: TATATATATATATATGTGTGTGTGTCCATCTGTATA | 10.7 ln median PBM intensity, better of two orientations |
| CACACA_site4352 (dsDNA) DNA 1: CCCACAGACGGACACACACACACATATATATATATA DNA 2: TATATATATATATGTGTGTGTGTGTCCGTCTGTGGG | 10.6 ln median PBM intensity, better of two orientations |
| CACACA_site3654 (dsDNA) DNA 1: AAAAAACAAAAACACACACACACATATATATATATA DNA 2: TATATATATATATGTGTGTGTGTGTTTTTGTTTTTT | 10.7 ln median PBM intensity, better of two orientations |
| CACACA_site493 (dsDNA) DNA 1: AACATACAGAAACACACACACACACCCACACCCACA DNA 2: TGTGGGTGTGGGTGTGTGTGTGTGTTTCTGTATGTT | 10.6 ln median PBM intensity, better of two orientations |
| CACACA_site4355 (dsDNA) DNA 1: CACAGACACGGACACACACACACACCCACATATATA DNA 2: TATATATGTGGGTGTGTGTGTGTGTCCGTGTCTGTG | 10.7 ln median PBM intensity, better of two orientations |
| CACACA_site4493 (dsDNA) DNA 1: GGCATACACGGACACACACACACACCGACATATATA DNA 2: TATATATGTCGGTGTGTGTGTGTGTCCGTGTATGCC | 10.6 ln median PBM intensity, better of two orientations |

Source: paper PMC11417369, “DNA sequence and chromatin differentiate sequence-specific transcription factor binding in the human malaria parasite Plasmodium falciparum”
